The assay addresses HEWL (lysozyme, derived from egg albumen, FUJIFILM Wako Pure Chemical Corporation) (UniProt P00698 19-147). The assay is described as follows: SPR (Biacore). (Surface plasmon resonance follows binding to a sensor surface in real time, without labels.)

Chain of HEWL (lysozyme, derived from egg albumen, FUJIFILM Wako Pure Chemical Corporation) (P00698 19-147): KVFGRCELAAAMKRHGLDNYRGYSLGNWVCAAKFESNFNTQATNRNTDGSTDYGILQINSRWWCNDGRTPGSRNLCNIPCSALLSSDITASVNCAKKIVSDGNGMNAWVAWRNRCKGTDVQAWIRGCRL

B1: 1ZVH (VHH, SEQ ID NO: 38) produced by Bacillus subtilis Dpr9ΔsigF (VHH)
VHH: QVQLVESGGGLVQPGGSLRLSCAASGFTFSNDAMTWVRQAPGKALEWVSSITLLGGGIPYYSDTVKGRFTISRDNTKNMLYLQMNSLKPEDTAVYYCAKGFKSDYPRGQGTQVTVSS
Regarding B1, the Kd stood at 18 nM.

One may read the Kd as the free concentration of one partner at which half of the binding sites on the other are occupied at equilibrium, for simple one-to-one binding. A high value points to lower affinity.

Source of the values: patent US20230111102A1 (published 2023).
